Experimental findings from article PMC7195491 are described below.

Sequences and labels used below:
B1: Dpr10 (Defective proboscis extension response 10), extracellular region [Drosophila melanogaster] / DIP-α (Dpr Interacting Protein alpha), extracellular region [Drosophila melanogaster] (parent)
chain 1: MLTLWTALFCCLTGLAVCYQRQSVSNNNHNNAEAKPTHAPPSHYPHGHKWNEPYFDLTMPRNITSLVGKSAYLGCRVKHLGNKTVAWIRHRDLHILTVGTYTYTTDQRFQTSYHRDIDEWTLQIKWAQQRDAGVYECQISTQPVRSYSVNLNIVVPTATILGGPDLYVDKGSTINLTCIIKFSPEPPTHIFWYHQDKVLSEETSGGRLKFKTIKSEETKSILLIYDADLLHSGKYSCYPSNTEIASIRVHVLQGERPEAMQTNAAPAAVALACWSCHFGQATQAVRVISTMVAALVLLEACSSLLLQSGGGGGCPGGGSPAGGMPTRVREIREKPLTNSLLDPKIPSTTSAERVNNGSRNAR
chain 2: MPVSAKRLLRNFQFTSCDRNGKMLIHLLLIVSLLEAIGAFQPEFVESISNVSVAVGRDATFTCHVRHLGGYRVGWLKADTKAIQAIHENVITHNPRVTVSHLDQNTWNLHIKAVSEEDRGGYMCQLNTDPMKSQIGFLDVVIPPDFISEDTSSDVIVPEGSSVRLTCRARGYPEPIVTWRREDGNEIVLKDNVGTKTLAPSFRGEVLKLSKISRNEMGSYLCIASNGVPPSVSKRISLSIHFHPVIQVPNQLVGAPLGTDVQIECHVEASPKSINYWIKDTGEMIVTSGKYHVQESSQSMYETKMSMIVRKFQKDDVGSYRCIAKNSLGEVDSSIRLYEIPGPNRNKNPLNGGGKGGGAGGSLDADANDILKQKQQVKVTYQPEDEELQYGSVEDFEAEGGEGGGLTPLSPHVYYTSGNKPATHKPGNSGGNQHLHQQHHHHHHHNNNNNNQQHSGGPGGGPTGGDAGSLGGEMGGITRKPPPYYGGNTEVRGPIDNNEMSSGSGDSRLCRGHHLPILLLPFARLILVRSWHCRHTFLMGLSQACLPGLLLSLL

In this assay the parent is B1. Description: SPR. The following applies: with DIP-α (Dpr Interacting Protein alpha), 25 °C, 10 mM Tris-HCl, pH 7.2, 150 mM NaCl, 1 mM EDTA, 1 mg mL−1 BSA, 0.01% (v/v) Tween-20, analyte 81 to 0.012 μM, three-fold dilution series, parent: 0.
Take chain 1 MLTLWTALFCCLTGLAVCYQRQSVSNNNHNNAEAKPTHAPPSHYPHGHKWNEPYFDLTMPRNITSLVGKSAYLGCRVKHLGNKTVAWIRHRDGHILTVGTYTYTTDQRFQTSYHRDIDEWTLQIKWAQQRDAGVYECQISTEPKRSYSVNLNIVVPTATILGGPDLYVDKGSTINLTCIIKFSPEPPTHIFWYHQDKVLSEETSGGRLKFKTIKSEETKSILLIYDADLLHSGKYSCYPSNTEIASIRVHVLQGERPEAMQTNAAPAAVALACWSCHFGQATQAVRVISTMVAALVLLEACSSLLLQSGGGGGCPGGGSPAGGMPTRVREIREKPLTNSLLDPKIPSTTSAERVNNGSRNAR [chain 1 L93G Q142E V144K]: the ddG is above 3.5 kcal/mol.
